Data set [1] deals with the molecule itself. The data set can be described thus: SEC; 100 ug protein on a Superdex 200 column; a 53-kDa protein and a 22-kDa protein run under the same conditions as controls. A general note: SEC sorts molecules by how far they enter the pores of the column.
Data set [2] addresses T1, Fur (native, not UMPylated) (Escherichia coli K-12 substrain MG1655, UniProt P0A9A9 1-148).
T1 sequence: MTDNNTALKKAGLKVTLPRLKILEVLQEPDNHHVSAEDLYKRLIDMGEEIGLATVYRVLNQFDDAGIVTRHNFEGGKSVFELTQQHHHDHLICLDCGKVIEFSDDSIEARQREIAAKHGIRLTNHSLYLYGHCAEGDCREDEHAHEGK
In words: EMSA; shift at Fur:DNA molar ratio above 1; no metal addition stated; DNA annealed in 10 mM Tris-HCl pH 7.5, 150 mM NaCl; binding buffer not stated; 20 nM DNA, 37 C 10 min (Methods) vs 10 nmol DNA, 30 C 10 min (Fig. 4 legend); 6%. The settings on record: protein: recombinant; tags: His tag removed with PPase (pGL01); chain copies: 2; blunt. For orientation: In EMSA bound probe runs differently from free probe, usually more slowly.

B1: E. coli Fur (ferric uptake regulator) purified from ydiU knockout E. coli, without UMPylation (natural protein, UniProt P0A9A9 1-148, looked up)
chain: MTDNNTALKKAGLKVTLPRLKILEVLQEPDNHHVSAEDLYKRLIDMGEEIGLATVYRVLNQFDDAGIVTRHNFEGGKSVFELTQQHHHDHLICLDCGKVIEFSDDSIEARQREIAAKHGIRLTNHSLYLYGHCAEGDCREDEHAHEGK
notes: Ferric uptake regulator Fur, E. coli K-12 substrain MG1655; fur gene amplified from genomic DNA and cloned into pGL01 (modified pET15b with a PPase cleavage site); also called Fur^dYdiU; native Fur; source: E. coli BL21(DE3) ydiU knockout strain, purified (Ni-NTA, His tag removed by PPase, Superdex 200)
B1: the “stoichiometry N” value in data set [1] turned out to be 2.

B2: Fur box DNA (dsDNA)
DNA 1: GATAATGATAATGATAATGATAATGATAATGA
DNA 2: TCATTATCATTATCATTATCATTATCATTATC
For B2, in data set [2], the binding result is on record as “binds”.

In general, stoichiometry N refers to the number of molecules, sites or subunits per partner or assembly.
